Molecular target: GLP-1 receptor on RIN-m5F rat insulinoma cells (Rat) (UniProt P32301)
Assay: cell-based or functional assay

Row | Substance | In vitro titer (%): cAMP EC50 in RIN-m5F cells, relative to exendin-4 [%]
1 | Ser12 DA exendin-4(Lys27)-PEG-Fc | 2.6
2 | DA GLP-1(Lys20, 28)-PEG-Fc | 2

Source: patent US20100105877A1
